The values that follow are results of earlier work, collected in paper PMC5576018.

This data set has as its target CSL (Homo sapiens) (UniProt Q06330).
Chain of UniProt Q06330 (Q06330 whole entry): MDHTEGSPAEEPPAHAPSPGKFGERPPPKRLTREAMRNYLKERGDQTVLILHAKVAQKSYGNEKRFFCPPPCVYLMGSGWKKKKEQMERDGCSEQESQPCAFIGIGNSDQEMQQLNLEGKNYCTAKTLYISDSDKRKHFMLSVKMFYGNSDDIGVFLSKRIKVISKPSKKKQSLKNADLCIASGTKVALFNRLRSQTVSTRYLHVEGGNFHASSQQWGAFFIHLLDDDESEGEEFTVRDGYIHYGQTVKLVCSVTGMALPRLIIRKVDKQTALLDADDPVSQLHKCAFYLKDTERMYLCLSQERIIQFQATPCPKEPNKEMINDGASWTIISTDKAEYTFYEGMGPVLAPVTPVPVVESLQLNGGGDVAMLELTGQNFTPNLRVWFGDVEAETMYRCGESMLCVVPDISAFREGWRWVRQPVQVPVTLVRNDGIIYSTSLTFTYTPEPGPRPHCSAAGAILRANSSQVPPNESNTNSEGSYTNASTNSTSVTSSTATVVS

For orientation: Kd means the equilibrium constant for the complex coming apart. As for Notch RAM RAM (from UniProt P46531), the equilibrium dissociation constant (Kd) was 22 nM.
